We go through eight molecules from PMC7916480, “Functional and Structural Characterization of Nucleic Acid Ligands That Bind to Activated Coagulation Factor XIII”.

The target of data set [1] is activated coagulation factor XIII (FXIIIa), recombinant human (human) (UniProt P00488).
In data set [2] the target is T1, FXIIIa (activated coagulation factor XIII) (human, UniProt P00488 39-732).
T1 sequence: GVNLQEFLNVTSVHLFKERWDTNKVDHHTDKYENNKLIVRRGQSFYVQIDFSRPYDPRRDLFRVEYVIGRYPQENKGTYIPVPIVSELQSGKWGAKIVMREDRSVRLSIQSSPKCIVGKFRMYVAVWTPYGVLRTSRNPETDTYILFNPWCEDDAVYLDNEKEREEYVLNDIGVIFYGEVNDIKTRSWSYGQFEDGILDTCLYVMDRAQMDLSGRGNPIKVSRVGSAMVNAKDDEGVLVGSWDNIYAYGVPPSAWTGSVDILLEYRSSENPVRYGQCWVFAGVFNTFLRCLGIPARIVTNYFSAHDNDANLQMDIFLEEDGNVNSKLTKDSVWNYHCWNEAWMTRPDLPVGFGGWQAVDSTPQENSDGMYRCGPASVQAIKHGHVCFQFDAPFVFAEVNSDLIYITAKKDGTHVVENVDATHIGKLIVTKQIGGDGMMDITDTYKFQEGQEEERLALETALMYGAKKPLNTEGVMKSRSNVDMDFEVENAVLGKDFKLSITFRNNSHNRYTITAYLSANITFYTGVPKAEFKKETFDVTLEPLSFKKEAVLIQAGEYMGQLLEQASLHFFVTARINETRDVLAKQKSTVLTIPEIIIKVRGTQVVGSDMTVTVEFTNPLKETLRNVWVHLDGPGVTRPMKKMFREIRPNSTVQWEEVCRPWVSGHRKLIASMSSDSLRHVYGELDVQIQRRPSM
In words: BLI; BLI (BLItz, SAX sensors, 3'-biotinylated aptamer 1 µM) in binding buffer, 2200 rpm; buffer composition, pH and temperature not in material; plate capture 30 min; fibrinogen competition 30 min at RT. The note with it: protein: recombinant; chain copies: 2; label: 3'-biotin (BLI, capture, fibrinogen assay). A general note: Biolayer interferometry detects binding as a change in optical thickness at a sensor tip.

Data set [3] concerns the target T1, FXIIIa (activated coagulation factor …). Description: competition; competition with immobilized fibrinogen, 25 nM FXIIIa; BLI (BLItz, SAX sensors, 3'-biotinylated aptamer 1 µM) in binding buffer, 2200 rpm; buffer composition, pH and temperature not in material; plate capture 30 min; fibrinogen competition 30 min at RT. The note with it: protein: recombinant; chain copies: 2; label: 3'-biotin (BLI, capture, fibrinogen assay).

For data set [4] the target is unchanged. Description: pull-down (aptamer-coated plate, activity read-out); 30 nM FXIIIa; BLI (BLItz, SAX sensors, 3'-biotinylated aptamer 1 µM) in binding buffer, 2200 rpm; buffer composition, pH and temperature not in material; plate capture 30 min; fibrinogen competition 30 min at RT. The note with it: protein: recombinant; chain copies: 2; label: 3'-biotin (BLI, capture, fibrinogen assay).

Data set [5] shares this target. In words: competition; competition with immobilized fibrinogen; not affected; BLI (BLItz, SAX sensors, 3'-biotinylated aptamer 1 µM) in binding buffer, 2200 rpm; buffer composition, pH and temperature not in material; plate capture 30 min; fibrinogen competition 30 min at RT. Conditions: protein: recombinant; chain copies: 2; label: biotin (capture).

Regarding Tridegin (peptide), the inhibition of FXIIIa isopeptidase activity (fluorogenic peptide substrate, 12.8 nM FXIIIa) by tridegin, up to 12 µM in data set [1] worked out at 50%.

B1: FA8 (ssDNA)
DNA: AAGCAGTGGTAAGTAGGTTGATCATCATGTTATTTTTGTTCCATCACGCCAGTTCTGGTTCTCTCTTCGAGCAATCCACAC
By Kd is commonly meant the concentration at which binding is half-saturated. The term IC50 denotes the point on the concentration scale where inhibition reaches its midpoint. Consider B1, for which the Kd in data set [2] was determined as 79.1 nM. Also, the IC50 in data set [3] is 136 nM.

B2: FA6 (ssDNA)
DNA: AAGCAGTGGTAAGTAGGTTGACGCTGCGGGCATCACGTAAGTTAATATATCACTCGGCTATTCTCTTCGAGCAATCCACAC
Regarding B2, in data set [2], the Kd turned out to be 93.5 nM. Also, in data set [4], the binding signal is around 5 % captured. Also, the IC50 in data set [3] stood at 57 nM.

B3: FA12 (ssDNA)
DNA: AAGCAGTGGTAAGTAGGTTGATCATCCTCTTTAAGTCATCACTTTAGTTTCTCCATCTACATCTCTTCGAGCAATCCACAC
Turning to B3, the Kd in data set [2] was determined as 51.8 nM. Further, in data set [4], the binding signal was 10 % captured. The IC50 in data set [3] came out at 38 nM.

B4: negative control oligonucleotide (ssDNA)
DNA: TACTGTCACGAGGATATAGCACATTAGTTCAGATACGATTGTTACTGTCA
For B4, the binding result in data set [5] is listed as “no binding”.

B5: FA3 (ssDNA)
DNA: AAGCAGTGGTAAGTAGGTTGACCATCGTAGTTCGTACACCAGTCCATTCTAGGACTCACAATCTCTTCGAGCAATCCACAC
As to B5, the Kd in data set [2] was 92.9 nM. Further, the binding signal in data set [4] is around 5 % captured. Also, the IC50 in data set [3] worked out at 66.2 nM.

B6: FA2 (ssDNA)
DNA: AAGCAGTGGTAAGTAGGTTGAGCTTTCATCACCCGTCGGTTAGACTAAGTCTCCAGCATCCTCTCTTCGAGCAATCCACAC
For B6, in data set [2], the dissociation constant Kd was found to be 79.1 nM. For the same molecule, the IC50 in data set [3] is 39.3 nM.

B7: FA1 (ssDNA)
DNA: AAGCAGTGGTAAGTAGGTTGACCATCCGCCGATTAGGCAATCACGTGGCTTAGGCACCGTATCTCTTCGAGCAATCCACAC
As for B7, in data set [2], the Kd came to 50.4 nM. Also, the IC50 in data set [3] came out at 89.5 nM.
